Data as given in IntAct's records for PubMed 16282588.

Assays:
[1] = biological target: tdg_human TDG (UniProt Q13569)
[2] = biological target: tdg_mouse Tdg (UniProt P56581)
[3] = biological target: tdg_human TDG (UniProt Q13569); remark: listed apart in the source

Sequence of tdg_human TDG (Q13569 whole entry): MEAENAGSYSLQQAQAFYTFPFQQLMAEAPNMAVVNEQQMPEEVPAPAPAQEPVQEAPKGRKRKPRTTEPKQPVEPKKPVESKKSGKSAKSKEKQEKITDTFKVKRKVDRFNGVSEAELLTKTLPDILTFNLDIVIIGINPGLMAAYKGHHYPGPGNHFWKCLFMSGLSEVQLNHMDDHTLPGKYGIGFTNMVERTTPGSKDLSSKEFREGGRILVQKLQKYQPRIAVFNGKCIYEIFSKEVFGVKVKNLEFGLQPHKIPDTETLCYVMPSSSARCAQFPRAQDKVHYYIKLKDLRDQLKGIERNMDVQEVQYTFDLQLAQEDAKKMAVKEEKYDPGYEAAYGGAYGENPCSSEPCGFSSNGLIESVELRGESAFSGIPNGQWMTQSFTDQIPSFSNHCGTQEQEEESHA
Sequence of tdg_mouse Tdg (P56581 whole entry): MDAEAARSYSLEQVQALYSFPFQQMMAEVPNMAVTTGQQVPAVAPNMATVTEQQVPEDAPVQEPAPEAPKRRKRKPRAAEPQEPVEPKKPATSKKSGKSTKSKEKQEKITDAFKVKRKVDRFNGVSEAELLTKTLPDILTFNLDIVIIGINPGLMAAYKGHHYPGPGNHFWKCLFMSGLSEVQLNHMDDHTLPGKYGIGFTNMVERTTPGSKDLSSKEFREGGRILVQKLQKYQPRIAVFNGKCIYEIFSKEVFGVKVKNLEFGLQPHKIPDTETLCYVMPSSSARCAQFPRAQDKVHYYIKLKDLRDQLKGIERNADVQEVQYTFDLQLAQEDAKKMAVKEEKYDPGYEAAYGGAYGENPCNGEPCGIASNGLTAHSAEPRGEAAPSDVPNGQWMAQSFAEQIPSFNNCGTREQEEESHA
Sequence of Nuclear receptor coactivator 1 (Homo sapiens), Q15788-2 Y991F;Y1169F (Q15788 other isoform, or with tags, fused parts or gaps Y991F;Y1169F): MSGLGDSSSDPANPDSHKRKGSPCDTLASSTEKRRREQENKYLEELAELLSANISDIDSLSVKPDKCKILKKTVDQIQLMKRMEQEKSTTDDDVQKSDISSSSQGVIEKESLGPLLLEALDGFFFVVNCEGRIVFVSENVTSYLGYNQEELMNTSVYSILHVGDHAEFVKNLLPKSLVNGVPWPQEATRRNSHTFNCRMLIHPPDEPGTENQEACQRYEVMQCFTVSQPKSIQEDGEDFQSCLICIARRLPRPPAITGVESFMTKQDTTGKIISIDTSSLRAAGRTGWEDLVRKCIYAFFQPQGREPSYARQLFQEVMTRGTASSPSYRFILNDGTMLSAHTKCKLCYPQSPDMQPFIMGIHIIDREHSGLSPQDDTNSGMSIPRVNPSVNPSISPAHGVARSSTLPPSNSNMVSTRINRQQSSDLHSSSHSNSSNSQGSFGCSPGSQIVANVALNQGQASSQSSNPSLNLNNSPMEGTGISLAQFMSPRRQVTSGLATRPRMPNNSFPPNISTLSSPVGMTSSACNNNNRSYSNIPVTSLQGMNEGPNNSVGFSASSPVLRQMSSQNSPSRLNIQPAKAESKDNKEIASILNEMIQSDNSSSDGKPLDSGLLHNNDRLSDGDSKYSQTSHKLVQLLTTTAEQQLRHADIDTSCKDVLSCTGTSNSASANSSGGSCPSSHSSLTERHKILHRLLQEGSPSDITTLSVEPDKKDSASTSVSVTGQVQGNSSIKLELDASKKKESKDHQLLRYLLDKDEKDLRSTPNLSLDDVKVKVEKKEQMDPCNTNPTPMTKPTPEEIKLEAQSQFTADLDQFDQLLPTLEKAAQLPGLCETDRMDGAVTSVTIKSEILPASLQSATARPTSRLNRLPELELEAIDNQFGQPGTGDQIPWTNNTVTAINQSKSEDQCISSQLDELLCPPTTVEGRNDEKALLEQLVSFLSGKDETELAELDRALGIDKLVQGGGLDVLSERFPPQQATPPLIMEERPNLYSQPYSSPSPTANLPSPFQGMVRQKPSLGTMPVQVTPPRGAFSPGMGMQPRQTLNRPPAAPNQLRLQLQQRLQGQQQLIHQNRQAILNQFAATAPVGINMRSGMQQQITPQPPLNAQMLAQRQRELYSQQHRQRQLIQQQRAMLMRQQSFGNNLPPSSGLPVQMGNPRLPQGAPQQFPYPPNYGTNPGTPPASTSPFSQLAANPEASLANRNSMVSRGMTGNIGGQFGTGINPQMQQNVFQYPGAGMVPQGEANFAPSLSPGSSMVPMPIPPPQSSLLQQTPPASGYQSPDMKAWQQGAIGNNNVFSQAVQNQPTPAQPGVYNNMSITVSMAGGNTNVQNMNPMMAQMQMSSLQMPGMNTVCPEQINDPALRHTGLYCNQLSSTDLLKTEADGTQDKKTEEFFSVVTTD
Sequence of Nuclear receptor coactivator 1 (Homo sapiens), Q15788-2 Y1169F (Q15788 other isoform, or with tags, fused parts or gaps Y1169F): as the sequence (Q15788 other isoform, or with tags, fused parts or gaps Y991F;Y1169F) above
Sequence of Nuclear receptor coactivator 1 (Homo sapiens), Q15788-2 Y991F (Q15788 other isoform, or with tags, fused parts or gaps Y991F): as the sequence (Q15788 other isoform, or with tags, fused parts or gaps Y991F;Y1169F) above

| Substance | effect of a mutation on the interaction [1] | effect of a mutation on the interaction [2] | effect of a mutation on the interaction [3] |
| --- | --- | --- | --- |
| Nuclear receptor coactivator 1 (Homo sapiens), Q15788 Y991F | decreasing interaction strength | decreasing interaction strength | – |
| Nuclear receptor coactivator 1 (Homo sapiens), Q15788 Y991F;Y1169F | decreasing interaction strength | decreasing interaction strength | – |
| Nuclear receptor coactivator 1 (Homo sapiens), Q15788 Y1169F | decreasing interaction strength | decreasing interaction strength | – |
| Nuclear receptor coactivator 1 (Homo sapiens), Q15788-2 Y991F | – | – | decreasing interaction strength |
| Nuclear receptor coactivator 1 (Homo sapiens), Q15788-2 Y991F;Y1169F | – | – | disrupting interaction strength |
| Nuclear receptor coactivator 1 (Homo sapiens), Q15788-2 Y1169F | – | – | disrupting interaction strength |
